In publication PMC8946150, “Microsphere Peptide-Based Immunoassay for the Detection of Recombinant Bovine Somatotropin in Injection Preparations” (Biosensors, 2022):
Where a chain is given by its changes, count along the chain named.

B1: rbST: 191 amino acid long protein hormone; rbST protein standard from NHPP (Dr. Parlow) (protein, UniProt P01246 27-217, looked up)
Somatotropin: AFPAMSLSGLFANAVLRAQHLHQLAADTFKEFERTYIPEGQRYSIQNTQVAFCFSETIPAPTGKNEAQQKSDLELLRISLLLIQSWLGPLQFLSRVFTNSLVFGTSDRVYEKLKDLEEGILALMRELEDGTPRAGQILKQTYDKFDTNMRSDDALLKNYGLLSCFRKDLHKTETYLRVMKCRRFGEASCAF
B2: eST: equine somatotropin from Bresagen (protein, UniProt P01245 27-216, looked up)
Somatotropin: FPAMPLSSLFANAVLRAQHLHQLAADTYKEFERAYIPEGQRYSIQNAQAAFCFSETIPAPTGKDEAQQRSDMELLRFSLLLIQSWLGPVQLLSRVFTNSLVFGTSDRVYEKLRDLEEGIQALMRELEDGSPRAGQILKQTYDKFDTNLRSDDALLKNYGLLSCFKKDLHKAETYLRVMKCRRFVESSCAF
B3: pST: Porcine Somatotropin from Sigma-Aldrich (protein, UniProt P01248 27-216, looked up)
Somatotropin: B2 Somatotropin with M72V, L91F, R113K

Tests used:
MAb 4H12 [1] = assay: MIPA binding of MAb 4H12 to peptide- or rbST-coupled microspheres; settings: peptide or protein coupled to microspheres, MAGPIX read-out
Method: (§1) Microsphere preparation was executed according to Bremer et al. with the exception that Magplex® microsphere sets instead of seroMAP microspheres were used. During the procedure, microspheres were trapped using a magnet (1 min) and after removal of the supernatant, trapped microspheres were resuspended by vortexing (1 min). The peptides pep, pep-K, pep-peg, pep-aca and rbST standard were coupled to the different internally dyed microsphere sets, i.e., microsphere set numbers 012, 043, 029, 038 and 064, respectively (Figure 2). The internal dye gives the microsphere set a unique spectral signature, and consequently, a unique read-out region. For each microsphere set, 2.5 × 10^6 microspheres were covalently coupled with a two-step carbodiimide reaction using 500 μL of 100 µg mL^−1 peptide in boric acid solution (100 mM boric acid, 1M NaCl, adjusted to pH 8.3 with NaOH), and 100 µg mL^−1 rbST in MES buffer (50 mM MES pH 5.0). After coupling, the microspheres were stable for over 1 year when stored in a blocking buffer (PBS, 0.1% BSA, 0.02% Tween-20 and 0.05% NaN3) at 2–8 °C in the dark until use, with the exception for the microspheres measured with XPS, which were stored in Milli-Q water until use.
(§2) In this procedure, all dilution and washing steps were executed using PBST containing 0.1% BSA. In total, 100 μL of rbST, eST, pST and hST standard solution or injection preparation extract were added to a low bind 96-well microtiter plate. Next, 10 μL of 20-, 2-, 2-, 1- and 0.7 ng mL^−1 antibody for microspheres coated with, respectively, pep, pep-peg, pep-aca, k-pep and rbST and microspheres (10 μL diluted suspension containing about 1250 microspheres per microsphere set) were added to each well. The microtiter plate was incubated for 20 min on a microtiter plate shaker to allow competition between the immobilized rbST epitope peptides or protein on the microspheres and the somatotropin (ST) present in the solution for the available antibody binding sites. After incubation, the microspheres were trapped by a magnet and washed twice. After washing, a 125 μL, 625-times diluted PE labeled Goat anti Mouse antibody was added and incubated for 20 min on a microtiter plate shaker. After this incubation step, microspheres were trapped with a magnet, supernatant removed and 125 µL PBST containing 0.1% BSA added. The plate was briefly mixed on the microtiter plate shaker before measuring on the imaging planar array analyzer (MAGPIX).

MAb 4H12 [2] = assay: Epitope mapping of rbST for MAb 4H12 (Pepscan, ELISA-type read out); type: binding; settings: all four epitope designs (sets 1-4: linear 15-mers, double-Ala, α-helical loop mimics)
Excerpt: The entire sequence of rbST (Figure 1A) was epitope mapped for antibody 4H12 by Pepscan Presto BV (Lelystad, The Netherlands), as described before. Briefly, the rbST sequence was derived from the endogenous bST sequence by replacing the N-terminal alanine (Ala) with a methionine (Met) residue. With this rbST sequence, four sets of peptides were produced and used to determine the binding epitope of MAb 4H12: (i) linear peptides of 15 amino acids in length with an offset of one amino acid (set 1), (ii) linear peptides similar to set 1, with the amino acids on place 10 and 11 replaced by alanine (Ala); a native Ala present on place 10 and/or 11 was replaced by glycine (Gly) (set 2), (iii) α-helical loop mimics of 21 amino acids in length with an offset of one amino acid and cysteine residues on place 1 and 5 to enable connection with an α-helix-inducing mP2 chemical linkage of peptides onto scaffolds (CLIPS, set 3) and (iv) α-helical loop mimics similar to set 3, with the two Cys residues placed on amino acid numbers 1 and 8, which were also linked with mP2 CLIPS (set 4). Binding of Mab 4H12 to the described peptides is quantified using an ELISA-type read out.
Figure 1 Schematic representation of the four epitope mapping approaches to identify peptide-based mimics of recombinant bovine somatotropin (rbST) that bind to the monoclonal antibody 4H12. […]

MAb 4H12 [3] = assay: Inhibition MIPA (microsphere peptide-based immunoassay, indirect competitive format, MAGPIX); type: binding; settings: for recognition / cross-reactivity of somatotropins with MAb 4H12: calibration curves up to 100 µg mL^-1, PBST/BSA; for concentration of full inhibition: somatotropin as competitor in PBST/BSA
Method: as §1, §2
Figure 3 Summarized workflow and assay principle of the indirect competitive assay format for somatotropins. In absence of rbST (upper part), MAb 4H12 binds to the peptide-coated microspheres, which enables binding of the PE coupled secondary antibody. The presence of PE results in a high signal in the imaging planar array analyzer. In presence of rbST (lower part), MAb 4H12 binds to the rbST in solution. […] As no PE is present, this will result in a low signal in the imaging planar array analyzer.

MAb 5E2 = assay: Surface plasmon resonance, MAb 5E2 on immobilized rbST or pep-peg; type: binding
Excerpt: (§3) Although the literature often describes the need for spacers in peptide-based biorecognition assays, in our assay format based on the MAb 4H12 and the peptide 115[…]125 biorecognition pair, no spacers were required. […] The presence of peptides on the microspheres was proven by XPS measurements (Supplementary Materials, Figure S2). In addition, the specificity was compared by initial surface plasmon resonance (SPR) experiments, where the pep-peg peptide was coupled to one microfluidic channel and rbST to another channel of the sensor surface. The sensor channels were incubated with two different rbST-induced monoclonal antibodies, MAb 4H12, which specifically binds the peptide 115[…]125 and MAb 5E2, which recognizes another, yet unknown, epitope. […] Next, MAb 4H12 concentrations were optimized for the microsphere peptide-based immunoassay to a dilution factor corresponding to a signal intensity of 1000 MFI for the blank standard (dilution buffer, Supplementary Materials, Table S2). […] The antibody concentrations in combination with the respective microspheres were used to determine the sensitivity of MAb 4H12 for the determination of full rbST-protein in standard solutions, as shown in Figure 4. For bot, rbST-protein and peptide immobilized microspheres, typical dose-response curves were obtained, with IC50 values of, respectively, 0.20 µg mL^−1 and 0.11 µg mL^−1.

dairy cows = settings: according to the manufacturer's protocol; cited from earlier work
Excerpt: RbST is a 191 amino acid long protein hormone that enhances growth and lactating performance in cattle. When administered to dairy cows according to the manufacturer’s protocol, milk production can increase up to 25% [11]. The use of rbST for milk-enhancing properties is approved in several countries, but is banned in the European Union. To control this ban, a strategy to detect rbST misuse in the EU has been described by Smits et al.. The strategy for rbST in serum and milk from dairy cows is based on the digestion of the proteins and detection of rbST-specific peptides formed ...

MAb 4H12 [4] = assay: Surface plasmon resonance, MAb 4H12 on immobilized rbST or pep-peg; type: binding
Excerpt: as §3

[5] = microspheres coupled with pep, n = 2

Row | Molecule | binding of MAb 4H12 to coupled microspheres (MAb 4H12 [1]) | recognition / cross-reactivity of somatotropins with MAb 4H12 (MAb 4H12 [3]; [5]) | concentration of full inhibition (MAb 4H12 [3]; [5]) | further results
1 | DLEEGILALMR [pep] | showed binding | – | – | binding between MAb 4H12 and epitope sequence (MAb 4H12 [2]): binding
2 | MRIEGLADLEL [pep-scr, linear peptide scrambled] | did not show any binding | – | – | binding of MAb 4H12 to coupled microspheres (MAb 4H12 [1]; listed as scrambled peptide): no binding occurred
3 | hST: human Somatotropin from Sigma-Aldrich | – | not able to recognize and bind | – | –
4 | B1 | showed binding | – | – | SPR binding of MAb 5E2 (MAb 5E2): Both MAbs showed binding; increase of milk production (dairy cows): up to 25%; IC50 of rbST in inhibition MIPA, per microsphere set (MAb 4H12 [3]; competitor rbST in PBST/0.1% BSA, label = peptide or protein coupled to the microspheres, MAb 4H12 20, 2, 2, 1, 0.7 ng mL^-1 for pep, pep-peg, pep-aca, pep-K, rbST, 20 min incubation, GAM-PE, MAGPIX, four-parameter fit, n = 3): 0.20 µg/mL; inhibition of MAb 4H12 at 1 µg mL^-1 (MAb 4H12 [3]; somatotropin as competitor at 1 µg mL^-1 in PBST/BSA, microspheres coupled with pep, n = 2): almost completely inhibits; SPR binding of MAb 4H12 (MAb 4H12 [4]): Both MAbs showed binding
5 | B2 | – | cross-reactivity was seen | around 100 µg mL^-1 | –
6 | B3 | – | cross-reactivity was seen | around 100 µg mL^-1 | –
